Source: the supplement of paper PMC9170038

System: MS2 coat protein
Test: apparent KD of MS2 coat protein; designed switch direction (-1 OFF switch, 1 ON switch): -1; higher = weaker reporter binding
Summary of the method: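 An oligonucleotide input, 200 uM small-molecule ligand, or no input was present during titration of SNAP-549-labelled MS2 coat protein, which was doubled from 0.7 or 1.5 nM to 3 µM. Designed RNA switches had been transcribed on Illumina chips by stalled E. coli RNA polymerase. Apparent KD per design is the median over clusters of curves fitted to normalised cluster fluorescence.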

[1] = Eterna round: R95, input ligand: FMN 200 uM
[2] = Eterna round: R95, input ligand: microRNA oligo, concentration not stated
[3] = Eterna round: R95, input ligand: none
[4] = input ligand: microRNA oligo, concentration not stated

Sequence | apparent KD of MS2 coat protein [1] [nM] | apparent KD of MS2 coat protein [2] [nM] | apparent KD of MS2 coat protein [3] [nM] | apparent KD of MS2 coat protein (input ligand: FMN 200 uM) [nM] | apparent KD of MS2 coat protein (input ligand: none) [nM] | apparent KD of MS2 coat protein [4] [nM]
AGUAACCGUCACGAAAGUGAUGGUUACACAAGUGUAAUAACAUGAGGAUCACCCAUGUCCUCAUUUGCUCGUUUUAU [Sensor 3 - 37] (puzzle: Sensor v3, turn-off variant 2) | 45.1 | 144 | 140 |  |  | 
GGAUCGUAUGUCAGGAUAUACCACUGGAUACAGUGGUAGAAGGGACAUGAGGAUCACCCAUGUCCUAUCGAUCC [Fiskers BMX 4 - 51] (puzzle: Brourd's mod of Exclusion 4) |  | 12 |  |  |  | 
CCAAGCUGUGUGAGGAUAUGCUGGUCCUUGGAUCAGCAGAAGGCACAUGAGGAUCACCCAUGUGAAAAGCUUGG [Mat - Exclusion 4 - JL Mod - D92] (puzzle: Brourd's mod of Exclusion 4) |  | 13.8 |  |  |  | 
AUGGAGGCAGGAUAUGAGCGUACGAACAUGAGGAUCACCCAUGUGAGAUCUCCUGGUAGCUCAGAAGGGCUAUCUC [Eternabot (Original) Solution 5] (Eterna round: R97, puzzle: Exclusion 5) |  |  |  | 253 | 67.4 | 
UCAUGGUAGCAGGAUAUGCUAGAAAUUUUUUAUGCAGAAGGGCUUACAUGAGGAUCACCCAUGUGUUAGGUCUA [JR_E6_Sub070] (puzzle: Exclusion 6) | 47.2 | 50.8 | 48.5 |  |  | 
CGUAUGUCAGGAUAUCGUGCAUACAACGAAAGUUCUAUGUGCGAGAAGGGACAUGAGGAUCACCCAUGUUUACG [Omei Ex4 A12] (Eterna round: R97, puzzle: Exclusion 4) |  |  |  | 89 | 26.1 | 
GAAGCACAUGAGGAUCACCCAUGUAAGGAUAUAUUUCUGGUCCGGCCGGACCAGUACCGUAGAAGGUAUGUAAA [Excls-IIIa] (puzzle: Exclusion 1) |  | 11.8 |  |  |  | 
CUGGAGUCAGGAUAUGACGCAGUCCGCCCAAGUGGCGGAAAUCAGAAGGGACUUGAGGAUCACCCAAGUAAAAG [Resorama] (Eterna round: R97, puzzle: Exclusion 4) |  |  |  | 26.8 | 29.8 | 
GCGGAUCUAGGAUAUACAUGAGGAUCACCCAUGUAAACUCUCUUGGAUGACUACUAUUGUAGAAGGAGAUAAGC [Erlabeedle] (puzzle: Exclusion 3) |  | 24.4 |  |  |  | 
AGUCGGCGAGGAUAUACAUGAGGAUCACCCAUGUGAGAUAGUGCACGCGUACGUGUACGUAGAAGGCGCUGACA [Mat - Exclusion 3 - Mod of JL D94] (puzzle: Exclusion 3) |  | 11.1 |  |  |  | 
UGGUGGAAGCAGGAUAUGCUUGUAUUAUUGAUAGCAGAAGGGCUAACAUGAGGAUCACCCAUGUAAGAGGUGUA [JR_E6_Sub057] (puzzle: Exclusion 6) | 190 | 203 | 238 |  |  | 
UAGAUACAUGAGGAUCACCCAUGUGAGGAUAUGAAUAAGAAUAGAUAAGAUAGUAGAAUCAGAAGGCACAAUGG [Starry Exclusion 1.2] (puzzle: Exclusion 1) | 70.1 | 47.4 | 51.8 |  |  | 
ACCUCACAUGAGGAUCACCCAUGUCAGGAUAUACAAGAAAAUAACCGGAAAGAACGGAGUAGAAGGGACAUAAG [Zatigeri] (puzzle: Exclusion 1) | 28.1 | 15.3 | 15.8 |  |  | 
GGUCGUCAAGUCAGGAUAUCGUAUAGUCGAUGUAACGAGAAGGGACAUGAGGAUCACCCAUGUCGUCUCAUCAG [Ex4 #25] (Eterna round: R97, puzzle: Brourd's mod of Exclusion 4) |  |  |  | 18.2 | 17.7 | 
UAAUAACAAGCGAGAUCCUACAUGAGGAUCACCCAUGUGCUCGUCUUAUAAAGUACUAUCACGAAAGUGAUAGUACA [Mat - Sensor v3 - turn-off var 1 - Eli Mod - D61] (puzzle: Sensor v3, turn-off variant 1) | 17.1 | 49.5 | 19.2 |  |  | 
AUGCUCAUAGGAUAUAGAUUGAUUCACAUGAGGAUCACCCAUGUAAACUCUACUUUUUAACUAGAAGGAUGUUUUU [JR_E5_Sub018] (puzzle: Exclusion 5) |  | 25.3 |  |  |  | 
AGAGAGUCAGGAUAUCGAAGGGAGAGGAAAGGAGAGAGGGACGAGAAGGGACAUGAGGAUCACCCAUGUAGGUG [JR_Exclusion4)Sub016] (puzzle: Exclusion 4) | 233 | 200 | 432 |  |  | 
ACGCCGCAAGGAUAUACUUGCGGUGAUGUUCGAGUUCUUCUACUUGAGGAUCACCCAAGUAGAAGGUGCAAAAC [jl-ex2.4.60 ViennaUCT mod] (Eterna round: R97, puzzle: Exclusion 2) |  |  |  | 14.9 | 14 | 
GCAGCAUAGUCCAAAUAGGACAUACAUGAGGAUCACCCAUGUCAGGAUAUGGUCUGGAUUACAGGCCAGAAGGGACAAAGCUGC [Eli exng3 - 001] (Eterna round: R96, puzzle: Exclusion NG 3) |  |  |  | 30.4 | 27.9 | 22.3
CUCCUCAUGGCGCCUAAACACAUGAGGAUCACCCAUGUACAGGCUUUCUGCCGUCUUAUAAUAAAACCGAGGAUGCG [Soedlexe] (puzzle: Sensor v3, turn-off variant 1) | 33.6 | 212 | 42.1 |  |  | 
ACGCAUUGCCUUUGGUAGUGCGUAACAUGAGGAUCACCCAUGUAGGAUAUGGUAGGCAAAGCUUACCAGAAGGACAUAAUAAUU [Mat - Exclusion NG 3 - Mod of JL - D3] (Eterna round: R96, puzzle: Exclusion NG 3) |  |  |  | 73 | 32.7 | 31.4
AGUCGGCGAGGAUAUACAUGAGGAUCACCCAUGUGAGAGAAUAAAGUGAGUUAGACAAGUAGAAGGCGCUGACA [JL Lego Mod 10] (Eterna round: R96, puzzle: Exclusion 3) |  |  |  | 356 | 48.1 | 40.9
ACAUGAGGAUCACCCAUGUCAGGCGGGUCCACUCCGGCUGUUGAGGAUAUAGCCCGGUAUCCGCGCUAGAAGGUGAGGGCCGGC [Aenatbe mod 25] (Eterna round: R96, puzzle: Exclusion NG 3) |  |  |  | 23.1 | 24.1 | 18.4
UACAUGAGGAUCACCCAUGUUUUGUCGUGUAUGGUAUUUAUCUAGGAUAUCAAUCUAAUUAUUUAUGAGAAGGAGAAUAUUAAU [JMF's solution 50] (Eterna round: R96, puzzle: Exclusion NG 3) |  |  |  | 47.9 | 42.4 | 31.2
UCUCUGUGAGGAUAUUGAACGACGCCGCUAACGGGCUUGCACAAGAAGGCACAUGAGGAUCACCCAUGUCCCGA [EX4 B.28] (Eterna round: R97, puzzle: Exclusion 4) |  |  |  | 29.1 | 20.7 | 
GGAUAAAAGUCAGGAUAUACGUAUCGCUAGCGAGUAGAAGGGACACAUGAGGAUCACCCAUGUGAGUUCUCAAUAAGAAACACG [Prohibition 61 - Jieux - Exclusion NG 1] (Eterna round: R96, puzzle: Exclusion NG 1) |  |  |  | 45.5 | 19.5 | 16.3
